Reference: patent publication US20220213145A1 (Bicycle, published 2022)
Starred links: 1 amine or outer side, 2 acyl side, 3 side chain; linkers in the order of their positions; H or OH if unused. Positions of bridges follow the written chain, without caps; N, C: chain ends. Non-standard residues stand in square brackets, D forms with d. Primed or numbered codes have the meaning given here. No end group written: not given here. TATA′ = 1,3,5-triacryloylhexahydro-1,3,5-triazine scaffold bound to the three cysteines; TATA = O=C(CC[*:1])N1CN(C(=O)CC[*:2])CN(C(=O)CC[*:3])C1; Phe(4-Me) = Cc1ccc(C[C@H](N)C(=O)O)cc1; Ser(ΨH,HPro) = O=C(O)[C@@H]1COCN1; Nle = CCCC[C@H](N)C(=O)O; PEG3′ = not defined here; Ac5c = NC1(C(=O)O)CCCC1

Key:
[1] = biological target: T1, Recombinant human CD137 homotrimer (R&D systems), biotinylated (human, UniProt Q07011 24-186, limits assumed, biotinylated with EZ-Link Sulfo-NHS-LC-LC-Biotin); assay: SPR (Biacore T200), biotinylated CD137 on streptavidin
T1 construct: also called biotinylated CD137
Method: (§1) Biacore experiments were performed to determine kₐ (M⁻¹s⁻¹), kd (s⁻¹), KD (nM) values of peptides binding to human CD137 protein. […] The protein was desalted to remove uncoupled biotin using spin columns into PBS.
(§2) For analysis of binding, a Biacore T200 instrument was used utilising a XanTec CMD500D chip. Streptavidin was immobilized on the chip using standard amine-coupling chemistry at 25° C. with HBS-N (10 mM HEPES, 0.15 M NaCl, pH 7.4) as the running buffer. Briefly, the carboxymethyl dextran surface was activated with a 7 min injection of a 1:1 ratio of 0.4 M 1-ethyl-3-(3-dimethylaminopropyl) carbodiimide hydrochloride (EDC)/0.1 M N-hydroxy succinimide (NHS) at a flow rate of 10 μl/min. For capture of streptavidin, the protein was diluted to 0.2 mg/ml in 10 mM sodium acetate (pH 4.5) and captured by injecting 120 μl of onto the activated chip surface. Residual activated groups were blocked with a 7 min injection of 1 M ethanolamine (pH 8.5) and biotinylated CD137 captured to a level of 800-1800 RU. Buffer was changed to PBS/0.05% Tween 20 and a dilution series of the peptides was prepared in this buffer with a final DMSO concentration of 0.5%. The top peptide concentration was 500 nM or 10 μM with 6 further 3-fold (500 nm), or 2-fold (10 μM) dilutions in PBS/0.05% Tween 20. The SPR analysis was run at 25° C. at a flow rate of 90 μl/min with 60 seconds association and 100-600 seconds dissociation. After each cycle, a regeneration step (10 μl of 10 mM glycine pH 2) was employed. Data were corrected for DMSO excluded volume effects. All data were double-referenced for blank injections and reference surface using standard processing procedures and data processing and kinetic fitting were performed using Scrubber software, version 2.0c (BioLogic Software). Data were fitted using mass transport model allowing for mass transport effects where appropriate.

[2] = biological target: CD137 on Jurkat reporter cells (Promega CD137 luciferase reporter assay) (UniProt Q07011 24-255, limits assumed); assay: cell-based or functional assay
[3] = biological target: T1, Recombinant human CD137 homotrimer (R&D …); assay: SPR (Biacore T200), biotinylated CD137 on streptavidin (n = 2)
Method: as §1
as §2, with “The SPR analysis was run at 25° C. at a flow rate of 90 μl/min with 60 seconds association and 100-600 seconds dissociation. After each cycle, a regeneration step (10 μl of 10 mM glycine pH 2) was employed. Data were corrected for DMSO excluded volume effects. All data were double-referenced for blank injections and reference surface using standard processing procedures and data processing and kinetic fitting were performed using Scrubber software, version 2.0c (BioLogic Software). Data were fitted using mass transport model allowing for mass transport effects where appropriate.” left out

[4] = biological target: T2, human CD137 protein (direct binding assay) (human, UniProt Q07011 24-186, limits assumed); assay: FP direct binding
T2 construct: Soluble CD137 protein titrated from 3 uM in the fluorescence polarisation assay; also called hCD137; TNFRSF9
Method: Affinity of the peptides of the invention for human CD137 (Ki) was determined using a fluorescence polarisation assay, in accordance with the methods disclosed in WO 2016/067035. […] CD137 protein was titrated starting at 3 μM in the same assay buffer as the peptide to assay 1 nM peptide in a total volume of 25 μL in black walled and bottomed low bind low volume 384 well plates. […] The concentrations of CD137 protein were 1 in 2 serial dilutions to give 12 different concentrations starting at 3 μM. Measurements were conducted on a BMG PHERAstar FS equipped with an FP 485 520 520 optic module at 25° C. with 200 flashes per well and a positioning delay of 0.1 second. Alternatively, the measurements were performed using Envision (PerkinElmer) equipped with FITC FP Dual Enh mirror, set to 30 flashes. Each well was measured every 5 minutes for 60 minutes. The gain used for analysis was determined for each tracer at the end of the 60 minutes where there was no protein in the well. The mP were fit to a standard 1:1 binding model with a quadratic equation to generate a Kd value.

Sequence of CD137 on Jurkat reporter cells (Promega CD137 luciferase reporter assay) (Q07011 24-255 limits assumed): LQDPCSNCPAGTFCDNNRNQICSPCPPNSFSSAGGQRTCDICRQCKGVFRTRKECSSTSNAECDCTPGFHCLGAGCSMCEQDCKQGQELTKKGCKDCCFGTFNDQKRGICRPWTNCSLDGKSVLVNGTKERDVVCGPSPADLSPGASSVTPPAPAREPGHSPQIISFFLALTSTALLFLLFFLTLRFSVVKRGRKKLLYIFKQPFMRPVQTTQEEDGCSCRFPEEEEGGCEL

Kd [1] [nM]	Binder	further results
500	ACIEEGQYCFADPYXCA (ACIEEGQYCF[dA]DPY[Nle]CA; cyclised on TATA, also called A-(74-01-04)-A D-Ala8 Nle12) [BCY8217]	–
200	Ac-AC[Ac5c]EEGQYCFADPY[Nle]CA (linker 2-9-16 via TATA, also called Ac-(74-01-04) Ac5c1 Nle12) [BCY8658]	–
1000	Ac-ACIEEGQ[Phe(4-Me)]CFADPY[Nle]CA (linker 2-9-16 via TATA, also called Ac-(74-01-04) 4MePhe6 Nle12) [BCY8670]	–
1000	ACIEEGQYCFXDPYXCA ([Ac]ACIEEGQYCF[Abu]DPY[Nle]CA; cyclised on TATA, also called Ac-(74-01-04) Abu8 Nle12) [BCY8676]	–

The next lines start with the binder.

Binder	Kd [1] [nM]	further results
Ac-ACI[Ser(ΨH,HPro)]EGQYCFADPY[Nle]CA (linker 2-9-16 via TATA′, also called Ac-(74-01-04) Oxa2 Nle12) [BCY7958]	20	–
Ac-ACIPE[dA]PYCFADPY[Nle]CA (linker 2-9-16 via TATA′, also called Ac-(74-01-04) Pro2 DAla4 Pro5 Nle12) [BCY7961]	10	–
ACIEEGQYCFADPYMCA (linker 2-9-16 via TATA) [BCY592]	–	IC50 (% inhibition of CD137L-induced NF-kB luciferase activity in CD137 Jurkat reporter cells) [2]: 3960 nM
Ac-ACIEE[Ac5c]QYCFADPY[Nle]CA (linker 2-9-16 via TATA, also called Ac-(74-01-04) Ac5c4 Nle12) [BCY8665]	–	Kd [3]: 200 nM
ACIEEGQYCFADPYXCA ([PEG3]ACIEEGQYCFADPY[tBuAla]CA; fluorescein-labelled; cyclised on TATA, also called [PEG3]-(74-01-04) tBuAla12) [BCY7210]	–	Kd [4]: 70 nM
[PEG3′]ACIEE[dF]QYCFADPY[Nle]CA (linker 3-10-17 via TATA; also: fluorescein-labelled, also called [PEG3]-(74-01-04) D-Phe4 Nle12) [BCY7166]	–	Kd [4]: 10 nM
[PEG3′]ACIEEGQYCFAAPY[Nle]CA (linker 3-10-17 via TATA; also: fluorescein-labelled, also called [PEG3]-(74-01-04) Ala9 Nle12) [BCY7290]	–	Kd [4]: > 3000 nM
